The text below walks through data of PMC8803112.

In experiment [1] the target is C1r complement protein (human).
Experiment [2] deals with C1s complement protein (human).
Experiment [3] concerns the target C3 complement protein (human).

Turning to “complement evasion factor (CEF), recombinant Spy0136 (from UniProt Q9A1R6 28-221) (natural protein)”, the Wieslab complement assay, classical pathway activity (C5b-9 formation) of serum pre-incubated with 2 µM rCEF in experiment [1] and in experiment [2] was below 10 % activity each time. The C3b deposition on S. pyogenes opsonised with human serum with 0.5 µM rCEF, flow cytometry in experiment [3] turned out to be 30 % decrease.
